According to article PMC5302886, “Structure and function of the mycobacterial transcription initiation complex with the essential regulator RbpA” (eLife, 2017):

B1: M. smegmatis RbpA (natural protein)
chain: MADRVLRGSRLGAVSYETDRNHDLAPRQVARYRTDNGEEFDVPFADDAEIPGTWLCRNGLEGTLIEGDVPEPKKVKPPRTHWDMLLERRSVEELEELLKERLDLIKAKRRGTGS
notes: RbpA of Mycobacterium smegmatis mc2155 (MSmeg_3858), cloned from genomic DNA into pet21C; elements NTT (25 residues, disordered in the crystal), CD, BL (residues 70-79), SID; 114 residues by the printed truncations (28-114aa, 72-114aa); the complex was held on the Ni2+ column by the His10-SUMO tag of σ^A and came in the flow-through after that tag was cleaved; The NTT was in the crystallised …
B2: M. smegmatis σ^A (natural protein)
chain: MAATKASPATEEPVKRTATKTPAKKAPAKRAAKSAAAKAGGKAPAKKAPAKRAAKGTAAKPEDGVTDDLEVTDDLEAEPGEDLDVEDTDLELDDLDSDDDTAVEDEEEEADAATPAVATAKAADDDIDEPSEKDKASGDFVWDEEESEALRQARKDAELTASADSVRAYLKQIGKVALLNAEEEVELAKRIEAGLYATQKLAELAEKGEKLPVQQRRDMQWICRDGDRAKNHLLEANLRLVVSLAKRYTGRGMAFLDLIQEGNLGLIRAVEKFDYTKGYKFSTYATWWIRQAITRAMADQARTIRIPVHMVEVINKLGRIQRELLQDLGREPTPEELAKEMDITPEKVLEIQQYAREPISLDQTIGDEGDSQLGDFIEDSEAVVAVDAVSFTLLQDQLQSVLETLSEREAGVVRLRFGLTDGQPRTLDEIGQVYGVTRERIRQIESKTMSKLRHPSRSQVLRDYLD
notes: primary (group 1) sigma factor σ^A of Mycobacterium smegmatis; domains σ^A2, σ^A3, σ^A4 named in the text; Plasmid Msm pET-SUMO σ^A received from C; Stallings; also called Msm σ^A; SigA

Molecular target: T1, M. smegmatis RNA polymerase β’ subunit (M. smegmatis, UniProt A0QS66 1-1317)
T1 construct: RNA polymerase β’ subunit of Mycobacterium smegmatis mc2155, native chromosomal copy of rpoC with a C-terminal PreScission site and His10 tag; In the crystal β’ stood as part of the whole σ^A-holoenzyme, not as an isolated subunit; also called RNAP β’-ppx-His10; rpoC product
Experiment: crystal structure; Msm RbpA/σ^A-holo mixed 1:1 with T10 upstream fork promoter DNA (RbpA/TIC, 446 kDa); hanging drop vapor diffusion at 22°C, 0.1 M Bis-Tris pH 6.0, 0.2 M LiSO4, 16% PEG 3350, 2.5% ethylene glycol; 2.76 Å
Conditions: both partners purified

Binder | binding result
B1 | binds
B2 | binds
